Assay results reported in patent US20260242419A1, “A CYCLIC PEPTIDE FOR TRAPPING INTERLEUKIN-1 BETA” (Merck Sharp & Dohme LLC, priority 2023, published 2026).
Starred links: 1 amine or outer side, 2 acyl side, 3 side chain; linkers in the order of their positions; H or OH if unused. Non-standard residues stand in square brackets, D forms with d. No end group written: not given here. TyrEtNAc = (2S)-3-[4-(2-acetamidoethoxy)phenyl]-2-amino-propanoic acid, CC(=O)NCCOc1ccc(C[C@H](N[*:1])C(=O)[*:2])cc1; dProc3CH24Pal = (2R,3S)-3-(4-pyridylmethyl)pyrrolidine-2-carboxylic acid, O=C([C@H]1[C@@H](Cc2ccncc2)CCN1[*:1])[*:2]; ThrOBn = (2S,3R)-2-amino-3-benzyloxy-butanoic acid, C[C@@H](OCc1ccccc1)[C@H](N[*:1])C(=O)[*:2]; daMeSMe = (2R)-2-amino-3-methoxy-2-methyl-propanoic acid, COC[C@@](C)(N[*:1])C(=O)[*:2]; ThrOMe = (2S,3R)-2-amino-3-methoxy-butanoic acid, CO[C@H](C)[C@H](N[*:1])C(=O)[*:2]; dPro(4R-(4-pyridylmethyl)) = O=C(O)[C@H]1C[C@@H](Cc2ccncc2)CN1; Trp(βS-Me,4-F) = C[C@@H](c1c[nH]c2cccc(F)c12)[C@H](N)C(=O)O; Bip(4'-CONH2) = NC(=O)c1ccc(-c2ccc(C[C@H](N)C(=O)O)cc2)cc1; Bip(4'-COOH) = N[C@@H](Cc1ccc(-c2ccc(C(=O)O)cc2)cc1)C(=O)O; Ala(1-bicyclo(1.1.1)pentyl) = N[C@@H](CC12CC(C1)C2)C(=O)O; dPro(3S-(4-F-Bn)) = O=C(O)[C@@H]1NCC[C@@H]1Cc1ccc(F)cc1; Trp(4-Cl) = N[C@@H](Cc1c[nH]c2cccc(Cl)c12)C(=O)O; Ala(pyrimidin-5-yl) = N[C@@H](Cc1cncnc1)C(=O)O; Phe(4-CONH2) = NC(=O)c1ccc(C[C@H](N)C(=O)O)cc1; Phe(4-COOH) = N[C@@H](Cc1ccc(C(=O)O)cc1)C(=O)O; Pro(cis-4-F) = O=C(O)[C@@H]1C[C@H](F)CN1; Ala(4-THP) = N[C@@H](CC1CCOCC1)C(=O)O; Dap(CONH2) = NC(=O)NC[C@H](N)C(=O)O; hTyr = N[C@@H](CCc1ccc(O)cc1)C(=O)O; cisHyp = O=C(O)[C@@H]1C[C@H](O)CN1; d(αMeD) = C[C@@](N)(CC(=O)O)C(=O)O; d(αMeN) = C[C@@](N)(CC(N)=O)C(=O)O; h4Pal = N[C@@H](CCc1ccncc1)C(=O)O; hPhe = N[C@@H](CCc1ccccc1)C(=O)O; 4Pal = N[C@@H](Cc1ccncc1)C(=O)O; αMeD = C[C@](N)(CC(=O)O)C(=O)O; d(αMeS) = C[C@@](N)(CO)C(=O)O; NMeDab = CN[C@@H](CCN)C(=O)O; Dab = NCC[C@H](N)C(=O)O; Nva = CCC[C@H](N)C(=O)O; Aib = CC(C)(N)C(=O)O; Sar = CNCC(=O)O

B1: SEQ ID NO: 210 (peptide)
peptide: cyclo([Bip(4'-COOH)][4Pal][Phe(4-COOH)]G[cisHyp][Trp(βS-Me,4-F)][Aib]SW[αMeD][Ala(4-THP)]Q[Dab][Sar][dPro(4R-(4-pyridylmethyl))])
modifications: ring closure inferred; not fully specified (bridges); printed as Bip4CO2H-4Pal-Phe4COOH-G-Proc4OH-SbMeW4F-Aib-S-W-aMeD-AlaTHP4-Q-Dab-Sar-dProc4CH24Pal, cyclic (macrolactam)
B2: SEQ ID NO: 223 (peptide)
peptide: [Bip(4'-COOH)][4Pal][Phe(4-COOH)]G[Pro(cis-4-F)][Trp(βS-Me,4-F)][Aib]SW[d(αMeD)][h4Pal]Q[Dap(CONH2)]G[dProc3CH24Pal]
modifications: lactam (positions not given here); also: macrolactam, ring places not given here
B3: SEQ ID NO: 226 (peptide)
peptide: [Bip(4'-COOH)][4Pal][Phe(4-COOH)]G[Pro(cis-4-F)][Trp(βS-Me,4-F)][Aib]S[Trp(4-Cl)][d(αMeD)][Ala(pyrimidin-5-yl)]Q[Dap(CONH2)]G[dProc3CH24Pal]
modifications: lactam (positions not given here); also: macrolactam, ring places not given here
B4: SEQ ID NO: 217 (peptide)
peptide: cyclo([Bip(4'-CONH2)][Ala(1-bicyclo(1.1.1)pentyl)][Phe(4-COOH)]G[Pro(cis-4-F)][Trp(βS-Me,4-F)][Aib]SW[d(αMeN)][Ala(4-THP)]Q[Dab]G[dPro(3S-(4-F-Bn))])
modifications: ring closure inferred; not fully specified (bridges); printed as Bip4CONH2-AlaPent-Phe4COOH-G-Proc4F-SbMeW4F-Aib-S-W-daMeN-AlaTHP4-Q-Dab-G-dProc3Bn4F, cyclic (macrolactam)
B5: SEQ ID NO: 213 (peptide)
peptide: cyclo([Bip(4'-COOH)][4Pal][Phe(4-COOH)]G[cisHyp][Trp(βS-Me,4-F)][Aib]SW[d(αMeS)][Ala(4-THP)]Q[Dab]G[dPro(4R-(4-pyridylmethyl))])
modifications: ring closure inferred; not fully specified (bridges); printed as Bip4CO2H-4Pal-Phe4COOH-G-Proc4OH-SbMeW4F-Aib-S-W-daMeS-AlaTHP4-Q-Dab-G-dProc4CH24Pal, cyclic (macrolactam)
B6: SEQ ID NO: 215 (peptide)
peptide: cyclo([Bip(4'-CONH2)][4Pal][Phe(4-COOH)]G[Pro(cis-4-F)][Trp(βS-Me,4-F)][Aib]SW[d(αMeS)][Ala(4-THP)]Q[Dab]G[dPro(4R-(4-pyridylmethyl))])
modifications: ring closure inferred; not fully specified (bridges); printed as Bip4CONH2-4Pal-Phe4COOH-G-Proc4F-SbMeW4F-Aib-S-W-daMeS-AlaTHP4-Q-Dab-G-dProc4CH24Pal, cyclic (macrolactam)
B7: SEQ ID NO: 222 (peptide)
peptide: [Bip(4'-COOH)][4Pal][Phe(4-COOH)]G[Pro(cis-4-F)][Trp(βS-Me,4-F)][Aib]SW[d(αMeD)][h4Pal]Q[Dab]G[dProc3CH24Pal]
modifications: lactam (positions not given here); also: macrolactam, ring places not given here
B8: SEQ ID NO: 212 (peptide)
peptide: cyclo([Bip(4'-COOH)][4Pal][Phe(4-COOH)]G[cisHyp][Trp(βS-Me,4-F)][Aib]SW[Aib][Ala(4-THP)]Q[Dab]G[dPro(4R-(4-pyridylmethyl))])
modifications: ring closure inferred; not fully specified (bridges); printed as Bip4CO2H-4Pal-Phe4COOH-G-Proc4OH-SbMeW4F-Aib-S-W-Aib-AlaTHP4-Q-Dab-G-dProc4CH24Pal, cyclic (macrolactam)
B9: SEQ ID NO: 219 (peptide)
peptide: cyclo([Bip(4'-COOH)][4Pal][Phe(4-COOH)]G[Pro(cis-4-F)][Trp(βS-Me,4-F)][Aib]SW[d(αMeD)][hTyr]Q[Dab]G[dProc3CH24Pal])
modifications: ring closure inferred; not fully specified (bridges); printed as Bip4CO2H-4Pal-Phe4COOH-G-Proc4F-SbMeW4F-Aib-S-W-daMeD-hY-Q-Dab-G-dProc3CH24Pal, cyclic (macrolactam)
B10: SEQ ID NO: 211 (peptide)
peptide: cyclo([Bip(4'-COOH)][4Pal][Phe(4-COOH)]G[Pro(cis-4-F)][Trp(βS-Me,4-F)][Aib]SW[Aib][Ala(4-THP)]Q[Dab]G[dPro(4R-(4-pyridylmethyl))])
modifications: ring closure inferred; not fully specified (bridges); printed as Bip4CO2H-4Pal-Phe4COOH-G-Proc4F-SbMeW4F-Aib-S-W-Aib-AlaTHP4-Q-Dab-G-dProc4CH24Pal, cyclic (macrolactam)
B11: SEQ ID NO: 227 (peptide)
peptide: [Bip(4'-COOH)][4Pal][Phe(4-COOH)]G[Pro(cis-4-F)][Trp(βS-Me,4-F)][Aib]SW[d(αMeD)][ThrOMe]Q[Dab]G[dProc3CH24Pal]
modifications: lactam (positions not given here); also: macrolactam, ring places not given here
B12: SEQ ID NO: 216 (peptide)
peptide: cyclo([Bip(4'-CONH2)][Ala(1-bicyclo(1.1.1)pentyl)][Phe(4-COOH)]G[Pro(cis-4-F)][Trp(βS-Me,4-F)][Aib]SW[d(αMeS)][Ala(4-THP)]Q[Dab]G[dPro(3S-(4-F-Bn))])
modifications: ring closure inferred; not fully specified (bridges); printed as Bip4CONH2-AlaPent-Phe4COOH-G-Proc4F-SbMeW4F-Aib-S-W-daMeS-AlaTHP4-Q-Dab-G-dProc3Bn4F, cyclic (macrolactam)
B13: SEQ ID NO: 231 (peptide)
peptide: [Bip(4'-COOH)][4Pal][Phe(4-COOH)]G[Pro(cis-4-F)][Trp(βS-Me,4-F)][Aib]SW[d(αMeD)][Nva]Q[Dab]G[dProc3CH24Pal]
modifications: lactam (positions not given here); also: macrolactam, ring places not given here
B14: SEQ ID NO: 225 (peptide)
peptide: [Bip(4'-COOH)][4Pal][Phe(4-COOH)]G[Pro(cis-4-F)][Trp(βS-Me,4-F)][Aib]S[Trp(4-Cl)][d(αMeD)][Ala(pyrimidin-5-yl)]Q[Dab]G[dProc3CH24Pal]
modifications: lactam (positions not given here); also: macrolactam, ring places not given here
B15: SEQ ID NO: 230 (peptide)
peptide: [Bip(4'-COOH)][4Pal][Phe(4-COOH)]G[Pro(cis-4-F)][Trp(βS-Me,4-F)][Aib]SW[d(αMeD)][Ala(pyrimidin-5-yl)]Q[Dap(CONH2)]G[dProc3CH24Pal]
modifications: lactam (positions not given here); also: macrolactam, ring places not given here
B16: SEQ ID NO: 228 (peptide)
peptide: [Bip(4'-COOH)][4Pal][Phe(4-COOH)]G[Pro(cis-4-F)][Trp(βS-Me,4-F)][Aib]SW[d(αMeD)][ThrOMe]Q[Dap(CONH2)]G[dProc3CH24Pal]
modifications: lactam (positions not given here); also: macrolactam, ring places not given here
B17: SEQ ID NO: 224 (peptide)
peptide: [Bip(4'-COOH)][4Pal][Phe(4-COOH)]G[Pro(cis-4-F)][Trp(βS-Me,4-F)][Aib]SW[daMeSMe][Ala(pyrimidin-5-yl)]Q[Dab]G[dProc3CH24Pal]
modifications: lactam (positions not given here); also: macrolactam, ring places not given here
B18: SEQ ID NO: 229 (peptide)
peptide: [Bip(4'-COOH)][4Pal][Phe(4-COOH)]G[Pro(cis-4-F)][Trp(βS-Me,4-F)][Aib]SW[d(αMeD)][ThrOBn]Q[Dab]G[dProc3CH24Pal]
modifications: lactam (positions not given here); also: macrolactam, ring places not given here
B19: SEQ ID NO: 221 (peptide)
peptide: [Bip(4'-COOH)][4Pal][Phe(4-COOH)]G[Pro(cis-4-F)][Trp(βS-Me,4-F)][Aib]SW[d(αMeD)][hPhe]Q[Dab]G[dProc3CH24Pal]
modifications: lactam (positions not given here); also: macrolactam, ring places not given here
B20: SEQ ID NO: 220 (peptide)
peptide: [Bip(4'-COOH)][4Pal][Phe(4-COOH)]G[Pro(cis-4-F)][Trp(βS-Me,4-F)][Aib]SW[Aib][hTyr]Q[Dab]G[dProc3CH24Pal]
modifications: lactam (positions not given here); also: macrolactam, ring places not given here

Target: Recombinant human IL-1β (BioLegend 579404) (human, UniProt P01584 117-269)
Assay: cell-based or functional assay

MRC5 IC50	Binder
0.029 nM	B1
0.027 nM	B2
0.022 nM	B3
0.028 nM	B4
0.021 nM	B5
0.036 nM	cyclo([TyrEtNAc][4Pal][Phe(4-CONH2)]G[Pro(cis-4-F)][Trp(βS-Me,4-F)][Aib]SW[Aib][Ala(pyrimidin-5-yl)]Q[NMeDab]G[dPro(4R-(4-pyridylmethyl))]) (ring closure inferred; not fully specified (bridges)) [SEQ ID NO: 218]
0.01 nM	B6
0.02 nM	B7
0.029 nM	B8
0.018 nM	B9
0.019 nM	B10
0.014 nM	B11
0.008 nM	B12
0.027 nM	B13
0.019 nM	B14
0.022 nM	B15
0.021 nM	B16
0.03 nM	B17
0.023 nM	B18
0.02 nM	B19
0.039 nM	B20
